Experimental data published in paper PMC9308819 (Nature Communications, 2022).

B1: Rep15, full length (natural N101D variant) [human] / Rab3A, purified, nucleotide-loaded [human] (parent complex)
chain 1: MGQKASQQLALKDSKEVPVVCEVVSEAIVHAAQKLKEYLGFEYPPSKLCPAANTLNEIFLIHFITFCQEKGVDEWLTTTKMTKHQAFLFGADWIWTFWGSDKQIKLQLAVQTLQMSSPPPVESKPCDLSNPESRVEESSWKKSRFDKLEEFCNLIGEDCLGLFIIFGMPGKPKDIRGVVLDSVKSQMVRSHLPGGKAVAQFVLETEDCVFIKELLRNCLSKKDGLREVGKVYISIL
chain 2: MASATDSRYGQKESSDQNFDYMFKILIIGNSSVGKTSFLFRYADDSFTPAFVSTVGIDFKVKTIYRNDKRIKLQIWDTAGQERYRTITTAYYRGAMGFILMYDITNEESFNAVQDWSTQIKTYSWDNAQVLLVGNKCDMEDERVVSSERGRQLADHLGFEFFEASAKDNINVKQTFERLVDVICEKMSESLDTADPAVTGAKQGPQLSDQQVPPHQDCAC

Variants of: B1
Experiment: ITC

Row | Kd [nM] | Variant
1 | 510 | chain 1 MGQKASQQLALKDSKEVPVVCEVVSEAIVHAAQKLKEYLGFEYPPSKLCPAANTLNEIFLIHFITFCQEKGVDEWLTTTKMTKHQAFLFGADWIWTFWGSDKQIKLQLAVQTLQMSSPPPVESKPCDLSNPESRAEESSWKKSRFDKLEEFCNLIGEDCLGLFIIFGMPGKPKDIRGVVLDSVKSQMVRSHLPGGKAVAQFVLETEDCVFIKELLRNCLSKKDGLREVGKVYISIL [chain 1 V135A]

Variants of: B1
Experiment: ITC
Remark: another data set of the same source

Row | Kd [nM] | Variant
2 | 450 | chain 1 MGQKASQQLALKDSKEVPVVCEVVSEAIVHAAQKLKEYLGFEYPPSKLCPAANTLNEIFLIHFITFCQEKGVDEWLTTTKMTKAQAFLFGADWIWTFWGSDKQIKLQLAVQTLQMSSPPPVESKPCDLSNPESRVEESSWKKSRFDKLEEFCNLIGEDCLGLFIIFGMPGKPKDIRGVVLDSVKSQMVRSHLPGGKAVAQFVLETEDCVFIKELLRNCLSKKDGLREVGKVYISIL [chain 1 H84A]
